Source: the RNAGym collection of RNA variant scans (doi:10.1101/gr.219683.116)

B1: mRNA-splicing (parent)
chain: AGUUGCUGCUGGGAGCUCCAGCACAGUGAAAUGGACAGAAGGGCAGAGCAA

Variants of: B1
Assay: exon inclusion enrichment index; higher = more inclusion; WT1 exon 5 minigene, HEK293
With G5C C6A U7C G8A U10A G28A A29C the “exon inclusion enrichment index” value was 0.0469.
With G5C C6A U7C G8A U10A G28A A29G the “exon inclusion enrichment index” value was 0.0244.
With G5C C6A U7C G8A U10A G28A A29U the “exon inclusion enrichment index” value was 0.0236.
For G5C C6A U7C G8A U10C G11C, the “exon inclusion enrichment index” value was 1.58.
In the case of G5C C6A U7C G8A U10C G11A, the “exon inclusion enrichment index” value is reported as 1.06.
In the case of G5C C6A U7C G8A U10C G11U, the “exon inclusion enrichment index” value is reported as 1.71.
In the case of G5C C6A U7C G8A U10A G43C C44G, the “exon inclusion enrichment index” value is reported as 1.22.
With G5C C6A U7C G8A U10A G43C C44U the “exon inclusion enrichment index” value was 0.0879.
For G5C C6A U7C G8A U10A G43C C44A, the “exon inclusion enrichment index” value was 0.602.
In the case of G5C C6A U10C, the “exon inclusion enrichment index” value is reported as 1.97.
In the case of G5C C6A U10A, the “exon inclusion enrichment index” value is reported as 0.116.
For G5C C6A U7C G8A U10A C44U A45G, the “exon inclusion enrichment index” value was 0.0445.
With G5C C6A U7C G8A U10A C44U A45U the “exon inclusion enrichment index” value was 0.0623.
With G5C C6A U7C G8A U10A C44U A45C the “exon inclusion enrichment index” value was 0.252.
For G5C C6A U7C G8A U10A G21U C22A, the “exon inclusion enrichment index” value was 0.0315.
In the case of G5C C6A U7C G8A U10A G21U C22G, the “exon inclusion enrichment index” value is reported as 0.113.
With G5C C6A U7C G8A U10A G21U C22U the “exon inclusion enrichment index” value was 0.011.
In the case of G5C C6A U7C G8A U10A U17A, the “exon inclusion enrichment index” value is reported as 0.106.
For G5C C6A U7C G8A U10A U17G, the “exon inclusion enrichment index” value was 0.0684.
For G5C C6A U7C G8A U10A U17C, the “exon inclusion enrichment index” value was 0.0444.
With G5C C6A U7C G8A U10A G21C C22G the “exon inclusion enrichment index” value was 0.322.
For G5C C6A U7C G8A U10A G21C C22A, the “exon inclusion enrichment index” value was 0.0674.
With G5C C6A U7C G8A U10A G21C C22U the “exon inclusion enrichment index” value was 0.105.
In the case of G5C C6A U7C G8A U10G G11A, the “exon inclusion enrichment index” value is reported as 1.71.
In the case of G5C C6A U7C G8A U10G G11C, the “exon inclusion enrichment index” value is reported as 2.
For G5C C6A U7C G8A U10G G11U, the “exon inclusion enrichment index” value was 1.69.
For G5C C6A U7C G8A U10A C18A C19A, the “exon inclusion enrichment index” value was 0.0025.
In the case of G5C C6A U7C G8A U10A C18A C19G, the “exon inclusion enrichment index” value is reported as 0.00323.
For G5C C6A U7C G8A U10A C18A C19U, the “exon inclusion enrichment index” value was 0.00173.
For G5C C6A U7C G8A U10A G34A, the “exon inclusion enrichment index” value was 0.0333.
For G5C C6A U7C G8A U10A G34C, the “exon inclusion enrichment index” value was 0.0202.
With G5C C6A U7C G8A U10A G34U the “exon inclusion enrichment index” value was 0.012.
With G5C C6A U7C G8A U10A G13U the “exon inclusion enrichment index” value was 0.00463.
For G5C C6A U7C G8A U10A G13C, the “exon inclusion enrichment index” value was 0.0242.
In the case of G5C C6A U7C G8A U10A G13A, the “exon inclusion enrichment index” value is reported as 0.277.
With G5C C6A U7C G8A U10A G42A the “exon inclusion enrichment index” value was 0.428.
With G5C C6A U7C G8A U10A G42C the “exon inclusion enrichment index” value was 0.501.
For G5C C6A U7C G8A U10A G42U, the “exon inclusion enrichment index” value was 0.154.
With G5C C6G U7A G8A U10A the “exon inclusion enrichment index” value was 0.321.
In the case of G5C C6G G8U C9U, the “exon inclusion enrichment index” value is reported as 1.08.
In the case of G5C C6A U7C G8A U10G, the “exon inclusion enrichment index” value is reported as 0.737.
With G5C C6A U7C G8A U10C the “exon inclusion enrichment index” value was 1.71.
In the case of G5C C6A U7C G8A U10A A47G G48C, the “exon inclusion enrichment index” value is reported as 0.0266.
In the case of G5C C6A U7C G8A U10A A47G G48U, the “exon inclusion enrichment index” value is reported as 0.00361.
In the case of G5C C6A U7C G8A U10A G42C G43U, the “exon inclusion enrichment index” value is reported as 0.483.
For G5C C6A U7C G8A U10A G42C G43C, the “exon inclusion enrichment index” value was 0.652.
With G5C C6A U7C G8A U10A G42C G43A the “exon inclusion enrichment index” value was 0.455.
In the case of G5C C6A U7C G8A U10A G42U G43C, the “exon inclusion enrichment index” value is reported as 0.0644.
In the case of G5C C6A U7C G8A U10A G42U G43A, the “exon inclusion enrichment index” value is reported as 0.386.
With G5C C6A U7C G8A U10A G42U G43U the “exon inclusion enrichment index” value was 0.305.
In the case of G5C C6A U7C G8A U10A G38A A39G, the “exon inclusion enrichment index” value is reported as 0.102.
With G5C C6A U7C G8A U10A G38A A39U the “exon inclusion enrichment index” value was 0.0079.
With G5C C6A U7C G8A U10A G38A A39C the “exon inclusion enrichment index” value was 0.107.
In the case of G5C C6A U7C G8A U10A G41C G42U, the “exon inclusion enrichment index” value is reported as 0.481.
In the case of G5C C6A U7C G8A U10A G41C G42A, the “exon inclusion enrichment index” value is reported as 0.141.
In the case of G5C C6A U7C G8A U10A G41C G42C, the “exon inclusion enrichment index” value is reported as 0.654.
In the case of G5C C6A U7C G8A U10A G41C, the “exon inclusion enrichment index” value is reported as 0.467.
For G5C C6A U7C G8A U10A G41A, the “exon inclusion enrichment index” value was 0.0572.
In the case of G5C C6A U7C G8A U10A G41U, the “exon inclusion enrichment index” value is reported as 0.102.
With G5C C6A U7C G8A U10A C18U C19G the “exon inclusion enrichment index” value was 0.0165.
For G5C C6A U7C G8A U10A C18U C19U, the “exon inclusion enrichment index” value was 0.00236.
In the case of G5C C6A U7C G8A U10A C18U C19A, the “exon inclusion enrichment index” value is reported as 0.00114.
In the case of G5C C6A U7C G8A U10A U32A, the “exon inclusion enrichment index” value is reported as 0.0862.
With G5C C6A U7C G8A U10A U32C the “exon inclusion enrichment index” value was 0.292.
For G5C C6A U7C G8A U10A U32G, the “exon inclusion enrichment index” value was 0.00606.
For G5C C6A U7C G8A U10A G46A A47C, the “exon inclusion enrichment index” value was 0.439.
In the case of G5C C6A U7C G8A U10A G46A A47U, the “exon inclusion enrichment index” value is reported as 0.159.
In the case of G5C C6A U7C G8A U10A G46A A47G, the “exon inclusion enrichment index” value is reported as 0.0332.
For G5C C6A U7C G8A U10A G34A A35U, the “exon inclusion enrichment index” value was 0.0204.
With G5C C6A U7C G8A U10A G34A A35C the “exon inclusion enrichment index” value was 0.0814.
In the case of G5C C6A U7C G8A U10A G34A A35G, the “exon inclusion enrichment index” value is reported as 0.0257.
For G5C C6A U7C G8A U10A U32C G33U, the “exon inclusion enrichment index” value was 0.0717.
With G5C C6A U7C G8A U10A U32C G33A the “exon inclusion enrichment index” value was 0.033.
In the case of G5C C6A U7C G8A U10A U32C G33C, the “exon inclusion enrichment index” value is reported as 0.153.
With G5C C6A U7C G8A U10A G15A C16A the “exon inclusion enrichment index” value was 0.00997.
With G5C C6A U7C G8A U10A G15A C16U the “exon inclusion enrichment index” value was 0.0227.
For G5C C6A U7C G8A U10A G15A C16G, the “exon inclusion enrichment index” value was 0.0227.
With G5C C6A U7C G8A U10A G21A the “exon inclusion enrichment index” value was 0.0465.
For G5C C6A U7C G8A U10A G21U, the “exon inclusion enrichment index” value was 0.0631.
In the case of G5C C6A U7C G8A U10A G21C, the “exon inclusion enrichment index” value is reported as 0.0715.
In the case of G5C C6A U7C G8A U10A G11A G12C, the “exon inclusion enrichment index” value is reported as 0.495.
With G5C C6A U7C G8A U10A G11A G12A the “exon inclusion enrichment index” value was 0.202.
In the case of G5C C6A U7C G8A U10A G11A G12U, the “exon inclusion enrichment index” value is reported as 0.0692.
